From patent publication US20260159566A1 (US Dept. of Health and Human Services, published 2026)
Read-outs that look alike come from different tables or passages of the source.

Legend:
[1] = target: T1, B-cell Maturation Antigen (BCMA) (human, UniProt Q02223 1-184); test: cell-based or functional assay
T1 sequence: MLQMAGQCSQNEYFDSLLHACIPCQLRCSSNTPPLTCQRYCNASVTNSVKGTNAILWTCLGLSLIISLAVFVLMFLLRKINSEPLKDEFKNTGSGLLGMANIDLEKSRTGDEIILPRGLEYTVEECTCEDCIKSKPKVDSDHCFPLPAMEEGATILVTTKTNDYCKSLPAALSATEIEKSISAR

[2] = target: T1, B-cell Maturation Antigen (BCMA); test: cell-based or functional assay; remark: listed apart in the source
[3] = target: T2, BCMA-Fc protein labeled with phycoerythrin (Homo sapiens (Human), UniProt Q02223 1-54, labeled with phycoerythrin); test: flow cytometry, BCMA-Fc-PE staining of CAR-transduced T cells
T2 construct: Staining reagent; also called BCMA-Fc-PE reagent; BCMA-Fc protein reagent; not shown: Fc part
T2 sequence: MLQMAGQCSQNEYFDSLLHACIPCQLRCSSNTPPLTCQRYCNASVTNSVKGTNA
Experimental: (§1) With reference to Table 2, cultured T cells were transduced with the indicated CARs and cultured overnight with the indicated target cells (top row). After the overnight incubation, a standard ELISA assay was performed on the culture supernatant. BCMA-K562 is BCMA⁺. All other targets are BCMA-negative. The percentage of T cells expressing the indicated CAR was determined by staining with a BCMA-Fc-PE reagent followed by flow cytometry. The % CAR⁺ equals the percentage of CD3⁺ cells transduced with each CAR that stained with the BCMA-Fc-PE reagent minus the percentage of untransduced CD3⁺ lymphocytes that stained with the BCMA-Fc-PE reagent. Except for the % CAR⁺ column, all numbers are pg/mL of interferon-gamma.

[4] = target: T2, BCMA-Fc protein labeled with …; test: as above; remark: listed apart in the source
Experimental: as §1

Interferon-gamma ELISA, T cells cultured overnight with BCMA-K562 cells [1]: 31300 pg/mL
Interferon-gamma ELISA, T cells cultured overnight with RPMI-8226 cells [1]: 4060 pg/mL
% CAR+ (percentage of CD3+ cells stained with BCMA-Fc-PE minus untransduced) [3]: 60.5%
% CAR+ (percentage of CD3+ cells stained with BCMA-Fc-PE minus untransduced) [4]: 60.5%
B1: FHVH33-CD828Z (other)
chain: EVQLLESGGGLVQPGGSLRLSCAASGFTFSSYAMSWVRQAPGKGLEWVSSISGSGDYIYYADSVKGRFTISRDISKNTLYLQMNSLRAEDTAVYYCAKEGTGANSSLADYRGQGTLVTVSSFVPVFLPAKPTTTPAPRPPTPAPTIASQPLSLRPEACRPAAGGAVHTRGLDFACDIYIWAPLAGTCGVLLLSLVITLYCNHRNRSKRSRLLHSDYMNMTPRRPGPTRKHYQPYAPPRDFAAYRSRVKFSRSADAPAYQQGQNQLYNELNLGRREEYDVLDKRRGRDPEMGGKPRRKNPQEGLYNELQKDKMAEAYSEIGMKGERRRGKGHDGLYQGLSTATKDTYDALHMQALPPR
notes: Chimeric antigen receptor on transduced primary human T cells; also called FHVH33 CAR
Tumor-necrosis factor-alpha ELISA, T cells cultured overnight with BCMA-K562 cells [2]: 2160 pg/mL
Tumor-necrosis factor-alpha ELISA, T cells cultured overnight with RPMI-8226 cells [2]: 210 pg/mL
